Laboratory results: patent US20160010147, “ENZYME STALLING METHOD” (OXFORD NANOPORE TECHNOLOGIES LIMITED, published 2016)

Key:
[1] = target: T1, T4 Dda-E94C/A360C helicase (Enterobacteria phage T4, UniProt P32270 SEQ:1-439, E94C/A360C, then (ΔM1)G1G2); experiment: EMSA; one enzyme bound only at 312.5-5000 nM; 1 uM DNA; 25 mM phosphate pH 8.0, 151.5 mM KCl; conditions: 5' ssDNA overhang with duplex
T1 sequence: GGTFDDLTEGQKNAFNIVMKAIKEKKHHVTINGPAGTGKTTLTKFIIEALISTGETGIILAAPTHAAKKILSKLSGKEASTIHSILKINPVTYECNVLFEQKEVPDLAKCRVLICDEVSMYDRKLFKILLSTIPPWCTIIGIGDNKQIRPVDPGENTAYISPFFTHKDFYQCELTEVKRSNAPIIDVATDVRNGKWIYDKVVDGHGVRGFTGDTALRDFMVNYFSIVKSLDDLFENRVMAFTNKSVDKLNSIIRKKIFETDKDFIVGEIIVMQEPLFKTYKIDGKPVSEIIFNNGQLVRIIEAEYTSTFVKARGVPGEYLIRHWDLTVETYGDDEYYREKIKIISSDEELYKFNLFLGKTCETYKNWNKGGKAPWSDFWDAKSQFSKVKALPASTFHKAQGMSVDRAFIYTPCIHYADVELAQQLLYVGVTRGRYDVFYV
Protocol: (§1) DNA constructs (1 μM or 100 nM final concentration) detailed below in Table 12 were incubated in appropriate buffer with serially diluted T4 Dda-E94C/A360C. The samples were then loaded on 4-20% TBE gels and run at 160 V for 90 minutes. The gels containing entries 1-6 were then stained using SYBR. […] The length of the region labelled 1 is varied from 2 to 50 to optimise conditions so that it is possible to control the number of T4 Dda-E94C/A360C helicases which can bind to the DNA,

[2] = target: T1, T4 Dda-E94C/A360C helicase; experiment: EMSA; up to five helicases bound; one, faintly two, stalled after ATP/MgCl2; conditions: 50 nt ssDNA overhang with duplex
Protocol: (§2) The annealed DNA complexes (sequences tested are shown in table 11 below) were mixed in a ratio of (1:1, v/v) with T4 Dda-E94C/A360C in 25 mM phosphate pH 8.0, 200 mM KCl giving final concentrations of T4 Dda-E94C/A360C (2000 nM) and DNA (100 nM). The helicase was allowed to bind to the DNA for 2 hours at ambient temperature. Capture strand (SEQ ID NO: 37, 20 μM) was added to each sample to bind any unbound enzyme and the samples incubated at ambient temperature for 30 mins. Buffer was added to the samples (DNA construct from table 11=50 nM, capture DNA (SEQ ID NO: 37)=10 μM and T4 Dda-E94C/A360C=1000 nM) and they were incubated at ambient temperature for one hour (either Buffer 1=25 mM phosphate pH 8.0, 200 mM KCl, 20 mM MgCl2, 10 mM ATP or Buffer 2=25 mM phosphate pH 8.0, 1 M KCl, 25 mM potassium ferricyanide(III), 75 mM potassium ferrocyanide, 20 mM MgCl2, 10 mM ATP). Loading buffer (25 mM Phosphate pH8.0, 151.5 mM KCl, 25% Glycerol, 125 mM EDTA) is added to each sample to quench the helicase activity. The samples were loaded onto 4-20% TBE gel and the gel run at 160 V for 1.5 hours. The Gel was then stained with SYBR gold in order to observe the DNA bands.

[3] = target: T1, T4 Dda-E94C/A360C helicase; experiment: EMSA; up to five helicases bound; ATP/MgCl2 gives strand displacement; conditions: 50 nt ssDNA overhang with duplex
Protocol: as §2

[4] = target: T1, T4 Dda-E94C/A360C helicase; experiment: EMSA; up to two enzymes bound; unbound only at 169 nM; 100 nM DNA; conditions: 5' ssDNA overhang with duplex
Protocol: as §1

[5] = target: T1, T4 Dda-E94C/A360C helicase; experiment: EMSA; one helicase stalled in at least one buffer with ATP/MgCl2; conditions: 50 nt ssDNA overhang with duplex
Protocol: as §2

[6] = target: T1, T4 Dda-E94C/A360C helicase; experiment: EMSA; two enzymes bound at 625-5000 nM, one at 312.5 nM; 1 uM DNA; conditions: 5' ssDNA overhang with duplex
Protocol: as §1

[7] = target: T1, T4 Dda-E94C/A360C helicase; experiment: EMSA; up to five helicases bound; one helicase stalled after ATP/MgCl2; conditions: 50 nt ssDNA overhang with duplex
Protocol: as §2

[8] = target: T1, T4 Dda-E94C/A360C helicase; experiment: EMSA; up to six enzymes bound at 5000 nM; 1 uM DNA; conditions: 5' ssDNA overhang with duplex
Protocol: as §1

[9] = target: T1, T4 Dda-E94C/A360C helicase; experiment: EMSA; up to two enzymes bound; one faint at 169 nM; 100 nM DNA; conditions: 5' ssDNA overhang with duplex
Protocol: as §1

[10] = target: T1, T4 Dda-E94C/A360C helicase; experiment: EMSA; unbound DNA only up to 3750 nM; 1 uM DNA; conditions: 5' ssDNA overhang with duplex
Protocol: as §1

[11] = target: T1, T4 Dda-E94C/A360C helicase; experiment: EMSA; one helicase bound from 238 nM, two from 475 nM up to 3800 nM; 100 nM DNA; conditions: two 10T ssDNA regions
Protocol: T4 Dda E94C/A360C was buffer exchanged into 25 mM phosphate pH 8.0, 151.5 mM KCl and serially diluted. The helicase and DNA were then mixed (1:1, v/v) with the DNA construct samples 9 and 10 described above (final concentration DNA=100 nM, helicase concentrations investigated=3800 nM, 1900 nM, 950 nM, 475 nM, 238 nM, 0 nM). The DNA and enzyme volumes were then incubated at ambient temperature for 1.5 hours. Dye free loading buffer (5×, 7.5 μL) was added to each sample (30 μL). Each sample (37.5 μL) was then loaded onto 4-20% TBE gel and run at 160 V for 90 minutes. The gel was then stained using SYBR.

B1: Table 12 construct 1 (10T region) (mixed)
DNA 1: TTTTTTTTTTTCGCTGCTCCACAGGTCTCAGCTTGAGCAGCGA
DNA 2: TCGCTGCTCAAGCTGAGACCTGTGGAGCAGCGA
modifications: 5 iSpC3 at 5' end; 4 iSpC3 between SEQ 37 and SEQ 36
B1: binds [1].

B2: Table 11 construct 8 (4 iSp18) (mixed)
DNA 1: TTTTTTTTTTTTTTTTTTTTTTTTTTTTTTTTTTTTTTTTTTTTTTTTTTTCGCTGCTCCACAGGTCTCAGCTTGAGCAGCGA
DNA 2: TCGCTGCTCAAGCTGAGACCTGTGGAGCAGCGA
modifications: 4 iSp18 between SEQ 9 and SEQ 36
B2: binds [2].

B3: Table 11 construct 1 (no spacers) (mixed)
DNA 1: TTTTTTTTTTTTTTTTTTTTTTTTTTTTTTTTTTTTTTTTTTTTTTTTTTTCGCTGCTCCACAGGTCTCAGCTTGAGCAGCGA
DNA 2: TCGCTGCTCAAGCTGAGACCTGTGGAGCAGCGA
B3: binds [3].

B4: Table 11 construct 9 (5 iSp18) (mixed)
DNA 1: TTTTTTTTTTTTTTTTTTTTTTTTTTTTTTTTTTTTTTTTTTTTTTTTTTTCGCTGCTCCACAGGTCTCAGCTTGAGCAGCGA
DNA 2: TCGCTGCTCAAGCTGAGACCTGTGGAGCAGCGA
modifications: 5 iSp18 between SEQ 9 and SEQ 36
B4: binds [2].

B5: Table 12 construct 8 (18T region) (mixed)
DNA 1: TTTTTTTTTTTTTTTTTTTCGCTGCTCCACAGGTCTCAGCTTGAGCAGCGA
DNA 2: TCGCTGCTCAAGCTGAGACCTGTGGAGCAGCGA
modifications: 5 iSpC3 at 5' end; 4 iSp18 between SEQ 40 and SEQ 36
B5: binds [4].

B6: Table 11 construct 2 (4 iSpC3) (mixed)
DNA 1: TTTTTTTTTTTTTTTTTTTTTTTTTTTTTTTTTTTTTTTTTTTTTTTTTTTCGCTGCTCCACAGGTCTCAGCTTGAGCAGCGA
DNA 2: TCGCTGCTCAAGCTGAGACCTGTGGAGCAGCGA
modifications: 4 iSpC3 between SEQ 9 and SEQ 36
B6: binds [5].

B7: Table 12 construct 2 (20T region) (mixed)
DNA 1: TTTTTTTTTTTTTTTTTTTTTCGCTGCTCCACAGGTCTCAGCTTGAGCAGCGA
DNA 2: TCGCTGCTCAAGCTGAGACCTGTGGAGCAGCGA
modifications: 5 iSpC3 at 5' end; 4 iSpC3 between SEQ 38 and SEQ 36
B7: binds [6].

B8: Table 11 construct 7 (3 iSp18) (mixed)
DNA 1: TTTTTTTTTTTTTTTTTTTTTTTTTTTTTTTTTTTTTTTTTTTTTTTTTTTCGCTGCTCCACAGGTCTCAGCTTGAGCAGCGA
DNA 2: TCGCTGCTCAAGCTGAGACCTGTGGAGCAGCGA
modifications: 3 iSp18 between SEQ 9 and SEQ 36
B8: binds [7].

B9: Table 12 construct 3 (50T region) (mixed)
DNA 1: TTTTTTTTTTTTTTTTTTTTTTTTTTTTTTTTTTTTTTTTTTTTTTTTTTTCGCTGCTCCACAGGTCTCAGCTTGAGCAGCGA
DNA 2: TCGCTGCTCAAGCTGAGACCTGTGGAGCAGCGA
modifications: 5 iSpC3 at 5' end; 4 iSpC3 between SEQ 9 and SEQ 36
B9: binds [8].

B10: Table 12 construct 7 (16T region) (mixed)
DNA 1: TTTTTTTTTTTTTTTTTCGCTGCTCCACAGGTCTCAGCTTGAGCAGCGA
DNA 2: TCGCTGCTCAAGCTGAGACCTGTGGAGCAGCGA
modifications: 5 iSpC3 at 5' end; 4 iSp18 between SEQ 39 and SEQ 36
B10: binds [9].

B11: Table 11 construct 6 (2 iSp18) (mixed)
DNA 1: TTTTTTTTTTTTTTTTTTTTTTTTTTTTTTTTTTTTTTTTTTTTTTTTTTTCGCTGCTCCACAGGTCTCAGCTTGAGCAGCGA
DNA 2: TCGCTGCTCAAGCTGAGACCTGTGGAGCAGCGA
modifications: 2 iSp18 between SEQ 9 and SEQ 36
B11: binds [5].

B12: Table 11 construct 3 (8 iSpC3) (mixed)
DNA 1: TTTTTTTTTTTTTTTTTTTTTTTTTTTTTTTTTTTTTTTTTTTTTTTTTTTCGCTGCTCCACAGGTCTCAGCTTGAGCAGCGA
DNA 2: TCGCTGCTCAAGCTGAGACCTGTGGAGCAGCGA
modifications: 8 iSpC3 between SEQ 9 and SEQ 36
B12: binds [5].

B13: Table 12 construct 4 (2T region) (mixed)
DNA 1: TTTCGCTGCTCCACAGGTCTCAGCTTGAGCAGCGA
DNA 2: TCGCTGCTCAAGCTGAGACCTGTGGAGCAGCGA
modifications: 5 iSpC3 at 5' end; 4 iSpC3 between TT and SEQ 36
B13: no binding [10].

B14: Table 11 construct 4 (12 iSpC3) (mixed)
DNA 1: TTTTTTTTTTTTTTTTTTTTTTTTTTTTTTTTTTTTTTTTTTTTTTTTTTTCGCTGCTCCACAGGTCTCAGCTTGAGCAGCGA
DNA 2: TCGCTGCTCAAGCTGAGACCTGTGGAGCAGCGA
modifications: 12 iSpC3 between SEQ 9 and SEQ 36
B14: binds [5].

B15: Table 11 construct 5 (1 iSp18) (mixed)
DNA 1: TTTTTTTTTTTTTTTTTTTTTTTTTTTTTTTTTTTTTTTTTTTTTTTTTTTCGCTGCTCCACAGGTCTCAGCTTGAGCAGCGA
DNA 2: TCGCTGCTCAAGCTGAGACCTGTGGAGCAGCGA
modifications: 1 iSp18 between SEQ 9 and SEQ 36
B15: binds [5].

B16: Table 12 construct 5 (4T region) (mixed)
DNA 1: TTTTTCGCTGCTCCACAGGTCTCAGCTTGAGCAGCGA
DNA 2: TCGCTGCTCAAGCTGAGACCTGTGGAGCAGCGA
modifications: 5 iSpC3 at 5' end; 4 iSpC3 between T4 and SEQ 36
B16: no binding [10].

B17: Table 16 construct 9 (non-forked) (mixed)
DNA 1: TTTTTTTTTTTTTTTTTTTTGGTTGTTTCTGTTGGTGCTGATATTGCGCCATCAGATTGTGTTTGTTAGTCGCT
DNA 2: GCAATATCAGCACCAACAGAAACAACC
DNA 3: AGCGACTAACAAACACAATCTGATGGC
modifications: 25 SpC3 at 5' end; 2 iSp18 after each SEQ 37; 4 nitroindoles between SEQ 10 and SEQ 41
B17: binds ([11]; two duplexes).

B18: Table 16 construct 10 (forked) (mixed)
DNA 1: TTTTTTTTTTTTTTTTTTTTGGTTGTTTCTGTTGGTGCTGATATTGCGCCATCAGATTGTGTTTGTTAGTCGCT
DNA 2: GCAATATCAGCACCAACAGAAACAACCT
DNA 3: AGCGACTAACAAACACAATCTGATGGC
modifications: 25 SpC3 at 5' end; 2 iSp18 after each SEQ 37; 4 nitroindoles between SEQ 10 and SEQ 41; 6 iSp18 at 3' end of SEQ 12
B18: binds ([11]; forked duplex).
